This data set deals with PU.1 (IVT) (UniProt P17947 1-270). In words: PBM; 20 mM HEPES pH 7.9, 100 mM NaCl, 1 mM DTT, 0.2 mg/mL BSA, 0.02% Triton X-100, 2% milk, 0.4 mg/mL salmon testes DNA, 1 h; temperature not stated. Particulars: protein: ivt; blunt. The essentials: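 Full-length untagged PU.1 was made by coupled human in vitro transcription/translation. It was bound for 1 h to custom double-stranded DNA microarrays carrying 20-bp genomic sites and single-nucleotide variants, 10 probes per site (5 per orientation). The binding buffer was HEPES pH 7.9 with 100 mM NaCl, 2% milk and salmon testes DNA. Bound protein was detected with anti-PU.1 and then a fluorescent secondary antibody. Binding is a z-score from scanned fluorescence after linear-regression normalisation.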

B1: PBM_PU1_IRF8_v2_16 (dsDNA)
DNA 1: GCCTAGCACAATATAGGGAAGTGCTTAACGTGCTAGGTCTTGATTCGCTTGACGCTGCTG
DNA 2: CAGCAGCGTCAAGCGAATCAAGACCTAGCACGTTAAGCACTTCCCTATATTGTGCTAGGC
The molecule B1 displayed a binding signal of 5.82 z-score.

B2: PBM_PU1_IRF8_v2_2 (dsDNA)
DNA 1: GCCTAGCACGAAAAGGGGAAGTGTATTCCGTGCTAGGTCTTGATTCGCTTGACGCTGCTG
DNA 2: CAGCAGCGTCAAGCGAATCAAGACCTAGCACGGAATACACTTCCCCTTTTCGTGCTAGGC
B2 yielded a binding signal of 7.7 z-score.

B3: PBM_PU1_IRF8_v2_1 (dsDNA)
DNA 1: GCCTAGCACTAAAAGAGGAAGTGGCAGATGTGCTAGGTCTTGATTCGCTTGACGCTGCTG
DNA 2: CAGCAGCGTCAAGCGAATCAAGACCTAGCACATCTGCCACTTCCTCTTTTAGTGCTAGGC
As to B3, the binding signal worked out at 8.16 z-score.

B4: PBM_PU1_IRF8_v2_3 (dsDNA)
DNA 1: GCCTAGCACATAAGGAGGAAGTGGCTGAAGTGCTAGGTCTTGATTCGCTTGACGCTGCTG
DNA 2: CAGCAGCGTCAAGCGAATCAAGACCTAGCACTTCAGCCACTTCCTCCTTATGTGCTAGGC
As for B4, the binding signal amounted to 5.13 z-score.

B5: PBM_PU1_IRF8_v2_13 (dsDNA)
DNA 1: GCCTAGCACGAAAAGAGGAAGTCAGATTGGTGCTAGGTCTTGATTCGCTTGACGCTGCTG
DNA 2: CAGCAGCGTCAAGCGAATCAAGACCTAGCACCAATCTGACTTCCTCTTTTCGTGCTAGGC
Consider B5, for which the binding signal was 8.24 z-score.

B6: PBM_PU1_IRF8_v2_6 (dsDNA)
DNA 1: GCCTAGCACGAAGAGAGGAAGTGAAATTAGTGCTAGGTCTTGATTCGCTTGACGCTGCTG
DNA 2: CAGCAGCGTCAAGCGAATCAAGACCTAGCACTAATTTCACTTCCTCTCTTCGTGCTAGGC
For the molecule B6, the binding signal was 5.03 z-score.

B7: PBM_PU1_IRF8_v2_4 (dsDNA)
DNA 1: GCCTAGCACGAAAACAGGAAGTGGACAACGTGCTAGGTCTTGATTCGCTTGACGCTGCTG
DNA 2: CAGCAGCGTCAAGCGAATCAAGACCTAGCACGTTGTCCACTTCCTGTTTTCGTGCTAGGC
With B7, the binding signal is 7.4 z-score.

B8: PBM_PU1_IRF8_v2_23 (dsDNA)
DNA 1: GCCTAGCACCAAATGAGGAAGTGAGACTTGTGCTAGGTCTTGATTCGCTTGACGCTGCTG
DNA 2: CAGCAGCGTCAAGCGAATCAAGACCTAGCACAAGTCTCACTTCCTCATTTGGTGCTAGGC
In turn, B8 showed a binding signal of 7.69 z-score.

B9: PBM_PU1_IRF8_v2_5 (dsDNA)
DNA 1: GCCTAGCACAAATAGAGGAAGTCAGAGAGGTGCTAGGTCTTGATTCGCTTGACGCTGCTG
DNA 2: CAGCAGCGTCAAGCGAATCAAGACCTAGCACCTCTCTGACTTCCTCTATTTGTGCTAGGC
For B9, the binding signal turned out to be 6.21 z-score.

B10: PBM_PU1_IRF8_v2_22 (dsDNA)
DNA 1: GCCTAGCACGAAAAGAGGAAGTGGAAACAGTGCTAGGTCTTGATTCGCTTGACGCTGCTG
DNA 2: CAGCAGCGTCAAGCGAATCAAGACCTAGCACTGTTTCCACTTCCTCTTTTCGTGCTAGGC
Turning to B10, the binding signal was found to be 8.54 z-score.

B11: PBM_PU1_IRF8_v2_24 (dsDNA)
DNA 1: GCCTAGCACATAAGGAGGAAGTGAGACAGGTGCTAGGTCTTGATTCGCTTGACGCTGCTG
DNA 2: CAGCAGCGTCAAGCGAATCAAGACCTAGCACCTGTCTCACTTCCTCCTTATGTGCTAGGC
Turning to B11, the binding signal stood at 4.54 z-score.

B12: PBM_PU1_IRF8_v2_30 (dsDNA)
DNA 1: GCCTAGCACATTTTAAGGAAGTGAAACCCGTGCTAGGTCTTGATTCGCTTGACGCTGCTG
DNA 2: CAGCAGCGTCAAGCGAATCAAGACCTAGCACGGGTTTCACTTCCTTAAAATGTGCTAGGC
Regarding B12, the binding signal was found to be 5.72 z-score.

Source of the values: paper PMC6451091, “NextPBM: a platform to study cell-specific transcription factor binding and cooperativity”.
